Assay results: US6762290

Columns and labels:
[1] = target: VEGFR2 (KDR) extracellular domain/Fc (Homo sapiens) (UniProt P35968); experiment: filter; details: 2'-F pyrimidines
c-Met/Fc = c-Met/Fc (UniProt P08581); experiment: filter; details: 2'-F pyrimidines
[2] = target: VEGF receptors on HUVEC (VEGFR2/KDR) (Homo sapiens) (UniProt P35968); experiment: competition; details: 2'-F pyrimidines; inhibition of 125I-VEGF-165 binding to HUVEC
[3] = target: VEGFR1 (Flt-1) extracellular domain/Fc (UniProt P17948); experiment: filter; details: 2'-F pyrimidines; HBSMC, 37 C
Chain of VEGFR1 (Flt-1) extracellular domain/Fc (P17948 27-758): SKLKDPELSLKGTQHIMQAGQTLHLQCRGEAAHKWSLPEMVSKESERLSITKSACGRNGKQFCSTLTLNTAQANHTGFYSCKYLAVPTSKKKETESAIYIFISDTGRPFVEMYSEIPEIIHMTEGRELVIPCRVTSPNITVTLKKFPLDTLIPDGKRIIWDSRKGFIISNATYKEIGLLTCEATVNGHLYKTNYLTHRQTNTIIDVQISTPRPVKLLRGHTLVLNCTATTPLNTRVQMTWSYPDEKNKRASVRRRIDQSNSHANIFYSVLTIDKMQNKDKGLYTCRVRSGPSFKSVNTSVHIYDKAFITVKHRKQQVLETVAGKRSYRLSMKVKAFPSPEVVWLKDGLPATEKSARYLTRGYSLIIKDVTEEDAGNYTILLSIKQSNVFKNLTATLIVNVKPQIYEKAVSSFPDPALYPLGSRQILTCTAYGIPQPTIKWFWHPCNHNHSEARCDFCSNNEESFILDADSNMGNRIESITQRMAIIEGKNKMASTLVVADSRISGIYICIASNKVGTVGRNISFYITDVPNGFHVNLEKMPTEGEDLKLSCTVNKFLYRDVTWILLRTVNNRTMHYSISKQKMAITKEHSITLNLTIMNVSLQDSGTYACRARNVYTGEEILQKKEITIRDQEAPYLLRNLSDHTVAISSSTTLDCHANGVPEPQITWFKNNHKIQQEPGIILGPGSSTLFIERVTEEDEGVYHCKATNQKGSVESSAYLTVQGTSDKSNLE

Chain of VEGFR2 (KDR) extracellular domain/Fc (Homo sapiens) (P35968 20-764): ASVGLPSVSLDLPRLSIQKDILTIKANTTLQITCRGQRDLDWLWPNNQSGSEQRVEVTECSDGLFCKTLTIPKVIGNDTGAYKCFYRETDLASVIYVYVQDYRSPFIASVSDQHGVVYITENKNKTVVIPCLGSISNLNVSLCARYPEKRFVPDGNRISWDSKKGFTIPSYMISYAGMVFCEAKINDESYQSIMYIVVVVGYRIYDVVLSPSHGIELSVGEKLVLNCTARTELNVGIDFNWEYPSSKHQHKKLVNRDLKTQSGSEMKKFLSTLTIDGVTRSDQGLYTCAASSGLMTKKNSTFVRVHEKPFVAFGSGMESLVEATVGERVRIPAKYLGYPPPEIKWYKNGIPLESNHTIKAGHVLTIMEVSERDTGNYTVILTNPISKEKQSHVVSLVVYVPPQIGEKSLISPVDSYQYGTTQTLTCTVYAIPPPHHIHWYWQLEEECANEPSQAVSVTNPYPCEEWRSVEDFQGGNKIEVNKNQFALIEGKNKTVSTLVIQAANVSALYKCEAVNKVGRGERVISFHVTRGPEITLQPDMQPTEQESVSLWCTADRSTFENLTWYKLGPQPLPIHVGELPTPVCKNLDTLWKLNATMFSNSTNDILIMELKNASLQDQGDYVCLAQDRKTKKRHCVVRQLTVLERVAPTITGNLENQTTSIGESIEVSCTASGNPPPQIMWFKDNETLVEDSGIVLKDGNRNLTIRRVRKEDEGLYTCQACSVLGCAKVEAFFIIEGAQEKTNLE
Chain of c-Met/Fc (P08581 25-932): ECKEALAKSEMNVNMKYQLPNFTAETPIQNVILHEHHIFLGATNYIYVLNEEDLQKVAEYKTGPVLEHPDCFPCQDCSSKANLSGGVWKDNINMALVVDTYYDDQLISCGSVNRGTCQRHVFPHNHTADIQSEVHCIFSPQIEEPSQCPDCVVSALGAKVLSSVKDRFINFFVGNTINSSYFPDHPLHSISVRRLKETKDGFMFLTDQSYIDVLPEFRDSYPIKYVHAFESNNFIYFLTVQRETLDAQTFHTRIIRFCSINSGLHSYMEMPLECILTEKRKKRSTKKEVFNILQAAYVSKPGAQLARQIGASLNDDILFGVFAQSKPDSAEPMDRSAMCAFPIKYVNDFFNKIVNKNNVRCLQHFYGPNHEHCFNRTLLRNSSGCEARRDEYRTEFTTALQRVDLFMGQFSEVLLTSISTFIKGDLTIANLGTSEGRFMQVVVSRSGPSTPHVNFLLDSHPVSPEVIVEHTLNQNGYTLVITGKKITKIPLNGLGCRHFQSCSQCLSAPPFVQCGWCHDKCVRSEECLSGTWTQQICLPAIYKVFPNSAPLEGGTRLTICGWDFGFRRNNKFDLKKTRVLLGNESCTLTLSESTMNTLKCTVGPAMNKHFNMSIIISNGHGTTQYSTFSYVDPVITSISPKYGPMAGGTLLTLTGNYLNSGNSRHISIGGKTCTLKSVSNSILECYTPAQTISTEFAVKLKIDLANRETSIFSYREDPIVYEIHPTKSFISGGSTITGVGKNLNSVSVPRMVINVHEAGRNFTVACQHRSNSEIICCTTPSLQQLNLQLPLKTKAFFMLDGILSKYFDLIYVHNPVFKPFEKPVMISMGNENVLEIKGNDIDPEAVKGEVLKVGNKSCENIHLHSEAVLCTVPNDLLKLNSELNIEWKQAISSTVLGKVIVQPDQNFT
Chain of VEGF receptors on HUVEC (VEGFR2/KDR) (Homo sapiens) (P35968 20-1356): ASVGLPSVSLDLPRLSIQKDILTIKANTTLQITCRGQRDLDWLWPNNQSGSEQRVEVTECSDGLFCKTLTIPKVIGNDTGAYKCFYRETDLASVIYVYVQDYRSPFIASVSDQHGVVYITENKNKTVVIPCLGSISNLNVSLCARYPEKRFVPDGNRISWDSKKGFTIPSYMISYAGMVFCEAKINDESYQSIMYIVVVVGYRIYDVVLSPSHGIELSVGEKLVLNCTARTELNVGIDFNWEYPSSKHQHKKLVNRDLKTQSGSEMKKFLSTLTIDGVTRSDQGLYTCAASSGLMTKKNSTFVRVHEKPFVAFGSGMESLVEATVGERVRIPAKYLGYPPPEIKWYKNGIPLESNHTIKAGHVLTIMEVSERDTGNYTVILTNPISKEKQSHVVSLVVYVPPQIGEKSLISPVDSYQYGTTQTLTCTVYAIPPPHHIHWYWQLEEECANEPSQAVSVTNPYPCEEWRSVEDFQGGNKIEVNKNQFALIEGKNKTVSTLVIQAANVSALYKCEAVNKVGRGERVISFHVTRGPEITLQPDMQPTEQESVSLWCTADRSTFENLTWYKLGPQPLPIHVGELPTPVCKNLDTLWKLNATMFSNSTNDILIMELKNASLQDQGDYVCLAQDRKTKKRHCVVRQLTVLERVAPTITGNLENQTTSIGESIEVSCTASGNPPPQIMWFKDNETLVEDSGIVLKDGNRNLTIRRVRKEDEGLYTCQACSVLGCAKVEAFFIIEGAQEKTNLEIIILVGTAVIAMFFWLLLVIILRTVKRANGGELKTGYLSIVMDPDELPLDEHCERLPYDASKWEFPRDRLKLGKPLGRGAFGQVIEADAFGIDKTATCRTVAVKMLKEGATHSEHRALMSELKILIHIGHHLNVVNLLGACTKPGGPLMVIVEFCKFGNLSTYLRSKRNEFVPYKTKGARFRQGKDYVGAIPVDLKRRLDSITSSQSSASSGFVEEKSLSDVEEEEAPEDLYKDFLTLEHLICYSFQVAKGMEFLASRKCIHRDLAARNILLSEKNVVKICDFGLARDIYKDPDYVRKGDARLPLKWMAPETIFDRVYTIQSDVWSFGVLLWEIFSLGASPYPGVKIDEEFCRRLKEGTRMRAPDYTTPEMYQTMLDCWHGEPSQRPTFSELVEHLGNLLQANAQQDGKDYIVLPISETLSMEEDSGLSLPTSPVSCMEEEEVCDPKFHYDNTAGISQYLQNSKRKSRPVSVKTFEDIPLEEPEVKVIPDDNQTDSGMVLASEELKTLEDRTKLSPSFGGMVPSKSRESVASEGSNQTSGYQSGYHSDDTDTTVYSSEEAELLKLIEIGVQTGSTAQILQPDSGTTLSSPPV

GGGAGGACGAUGCGGAGCACUUGACCCACNACCAGAAAGCCAGCCCAGACGACUCGCCCGA [K6]
Kd ([1]; 30N clone): 0.98 nM

GGGAGGACGAUGCGGNNNNNNNNNNNNNNNNNNNNNNNNNNNNNNNNNNNNNNNNCAGACGACUCGCCCGA [KDR SELEX round 2 pool]
Kd ([1]; HBSMC, 37 C): 0.68 nM

GGGAGGACGAUGCGGNNNNNNNNNNNNNNNNNNNNNNNNNNNNNNNNNNNNNNNNCAGACGACUCGCCCGA [KDR SELEX round 3 pool]
Kd ([1]; HBSMC, 37 C): 0.8 nM

GGGAGGACGAUGCGGAUCAUACCGGGUCAUAACACCGNUCACGGGGCCUUNUCGUCAGACGACUCGCCCGA [K24]
Kd ([1]; circularly permuted family member): 0.97 nM

GGGAGGACGAUGCGGNNNNNNNNNNNNNNNNNNNNNNNNNNNNNNNNNNNNNNNNCAGACGACUCGCCCGA [KDR SELEX round 6 pool]
Kd ([1]; HBSMC (Mg, Ca), 37 C): 0.44 nM

GGGAGGACGAUGCGGNNNNNNNNNNNNNNNNNNNNNNNNNNNNNNNNNNNNNNNNCAGACGACUCGCCCGA [KDR SELEX round 5 pool]
Kd ([1]; HBSMC, 37 C): 0.83 nM
Kd ([1]; comparison with cMet/Fc): 0.76 nM
Kd (c-Met/Fc; specificity control for Fc binding): 74 nM

GGGAGGACGAUGCGGACANAUAACACAGGGCCUGCUUGGAUCACACUGAUUGCGCCCAGACGACUCGCCCGA [K17]
Kd [1]: 0.24 nM
IC50 [2]: 163 nM

GGGAGGACGAUGCGGNNNNNNNNNNNNNNNNNNNNNNNNNNNNNNNNNNNNNNNNCAGACGACUCGCCCGA [KDR SELEX round 4 pool]
Kd ([1]; HBSMC, 37 C): 0.581 nM

GGGAGGACGAUGCGGNNNNNNNNNNNNNNNNNNNNNNNNNNNNNNNNNNNNNNNNCAGACGACUCGCCCGA [Flt-1 SELEX round 5 pool]
Kd [3]: 0.093 nM

GGGAGGACGAUGCGGNNNNNNNNNNNNNNNNNNNNNNNNNNNNNNNNNNNNNNNNCAGACGACUCGCCCGA [40N7 starting random library (round 0)]
Kd [3]: 0.2 nM
Kd ([1]; HBSMC, 37 C): 36 nM
Kd ([1]; as printed, differs from 36 ± 3 nM in Table 1 legend): 361 nM
Kd (c-Met/Fc; specificity control): 58 nM
